Residue numbers refer to the chain shown, from its start. In names and notes the source's numbering stands.
T1: human AMHRII (anti-Mullerian hormone receptor type 2) (human, UniProt Q16671 18-573)
T1 construct: whole, on cells; also called AMHR2; human AMHR2
T1 sequence (looked up): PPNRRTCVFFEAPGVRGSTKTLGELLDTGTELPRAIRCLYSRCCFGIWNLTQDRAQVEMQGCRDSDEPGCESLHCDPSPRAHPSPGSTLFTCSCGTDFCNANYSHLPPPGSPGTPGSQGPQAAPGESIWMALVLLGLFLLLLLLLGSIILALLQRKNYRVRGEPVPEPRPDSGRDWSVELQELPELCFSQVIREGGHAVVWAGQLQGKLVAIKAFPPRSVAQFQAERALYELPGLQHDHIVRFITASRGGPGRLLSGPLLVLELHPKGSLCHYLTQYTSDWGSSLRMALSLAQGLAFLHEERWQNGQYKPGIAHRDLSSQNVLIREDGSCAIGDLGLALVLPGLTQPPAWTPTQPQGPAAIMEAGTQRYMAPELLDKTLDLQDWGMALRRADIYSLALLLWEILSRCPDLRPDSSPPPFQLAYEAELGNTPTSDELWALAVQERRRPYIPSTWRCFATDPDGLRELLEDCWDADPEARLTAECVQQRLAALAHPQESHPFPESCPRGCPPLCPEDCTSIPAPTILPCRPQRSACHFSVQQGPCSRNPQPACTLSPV

B1: 31D9B3 VH1-VL2.2 hIgG1 (antibody, V domains shown)
VH: QVQLVQSGAEVKKPGASVKVSCKASGYTFTDYWVSWVRQAPGQGLEWMGEIYPKNGVSNFNEKFKGRVTMTTDTSTSTAYMELRSLRSDDTAVYYCARQRDYWGQGTLVTVSS
VL: DVVMTQSPLSLPVTLGQPASISCRSSQSLEYGDRYTYLEWYLQRPGQSPRLLIYGVSNRFSGVPDRFSGSGSGTDFTLKISRVEAEDVGVYYCFQATHDPNTFGQGTKLEIK
notes: Humanized, PTM de-risked (VL G(30D)R), human IgG1; also called 31D9B3 VH1-VL2.2 hlgG1
B2: 108F3D1E9 H2L2 hIgG1 (antibody, V domains shown)
VH: QLQLQESGPGLVKPSETLSLTCTVSGYSITSDFAWNWIRQPPGKGLEWMGYISFSGSTSYNPSLKSRVTISRDTSKNQFSLKLSSVTAADTAVYYCAGSRYSWFAYWGQGTLVTVSS
VL: DIQLTQSPSSLSASVGDRVTITCRASESVDTYGNSFMHWYQQKPGKPPKLLIYRASNLESGIPSRFSGSGSGTDFTLTISSLQPEDFATYYCQQSNEDPYTFGGGTKVEIK
notes: Humanized, human IgG1; also called 108F3D1E9 H2L2 hlgG1
B3: 94C4C3 H2L2 hIgG1 (antibody, V domains shown)
VH: B2 VH with F33Y, F54Y, T58I, V68I, G98R, A105D
VL: EIVLTQSPGTLSLSPGERATLSCSASESVDTYGNSFMHWYQQKPGQPPRLLIYRASSLESGIPVRFSGSGSRTDFTLTISRLEPEDFAVYYCQQSNEDPYTFGGGTKVEIK
notes: Humanized, human IgG1; also called 94C4C3 H2L2 hlgG1
B4: 108F3D1E9 H1L3 hIgG1 (antibody, V domains shown)
VH: B2 VH with M49I, R72V, G98R
VL: B2 VL with Q3V, K46Q, S64A, L82V
notes: Humanized, human IgG1; also called 108F3D1E9 H1L3 hlgG1
B5: 108F3D1E9 H1L2 hIgG1 (antibody, V domains shown)
VH: B2 VH with M49I, R72V, G98R
VL: B2 VL
notes: Humanized, human IgG1; also called 108F3D1E9 H1L2 hlgG1
B6: 94C4C3 H2L3 hIgG1 (antibody, V domains shown)
VH: B2 VH with F33Y, F54Y, T58I, V68I, G98R, A105D
VL: B3 VL with L82V, P84A, V108L
notes: Humanized, human IgG1; also called 94C4C3 H2L3 hlgG1
B7: 94C4C3 H1L2 hIgG1 (antibody, V domains shown)
VH: B2 VH with F33Y, M49I, F54Y, T58I, R72V, G98R, A105D
VL: B3 VL
notes: Humanized, human IgG1; also called 94C4C3 H1L2 hlgG1
B8: 108F3D1E9 H2L1 hIgG1 (antibody, V domains shown)
VH: B2 VH
VL: B2 VL with L4M, P47A, I62V
notes: Humanized, human IgG1; also called 108F3D1E9 H2L1 hlgG1
B9: 94C4C3 H2L1 hIgG1 (antibody, V domains shown)
VH: B2 VH with F33Y, F54Y, T58I, V68I, G98R, A105D
VL: B3 VL with P47A, V64D, R72G
notes: Humanized, human IgG1; also called 94C4C3 H2L1 hlgG1
B10: 94C4C3 H1L4 hIgG1 (antibody, V domains shown)
VH: B2 VH with F33Y, M49I, F54Y, T58I, R72V, G98R, A105D
VL: B3 VL with E1D, L13V, R49K, L82V, P84A, V108L
notes: Humanized, human IgG1; also called 94C4C3 H1L4 hlgG1
B11: 108F3D1E9 H1L4 hIgG1 (antibody, V domains shown)
VH: B2 VH with M49I, R72V, G98R
VL: B2 VL with Q3V, A13V, V19A, K46Q, S64A, G72R, L82V, V108L
notes: Humanized, human IgG1; also called 108F3D1E9 H1L4 hlgG1
B12: 108F3D1E9 H2L3 hIgG1 (antibody, V domains shown)
VH: B2 VH
VL: B2 VL with Q3V, K46Q, S64A, L82V
notes: Humanized, human IgG1; also called 108F3D1E9 H2L3 hlgG1
B13: 108F3D1E9 H2L4 hIgG1 (antibody, V domains shown)
VH: B2 VH
VL: B2 VL with Q3V, A13V, V19A, K46Q, S64A, G72R, L82V, V108L
notes: Humanized, human IgG1; also called 108F3D1E9 H2L4 hlgG1
B14: 94C4C3 H1L3 hIgG1 (antibody, V domains shown)
VH: B2 VH with F33Y, M49I, F54Y, T58I, R72V, G98R, A105D
VL: B3 VL with L82V, P84A, V108L
notes: Humanized, human IgG1; also called 94C4C3 H1L3 hlgG1
B15: 94C4C3 H2L4 hIgG1 (antibody, V domains shown)
VH: B2 VH with F33Y, F54Y, T58I, V68I, G98R, A105D
VL: B3 VL with E1D, L13V, R49K, L82V, P84A, V108L
notes: Humanized, human IgG1; also called 94C4C3 H2L4 hlgG1
B16: 31D9B3 VH1-VL2.1 hIgG1 (antibody, V domains shown)
VH: B1 VH
VL: B1 VL with D33S, R34G
notes: Humanized, PTM de-risked (VL D(30C)S), human IgG1; also called 31D9B3 VH1-VL2.1 hlgG1
B17: 31D9B3 VH1.1-VL2 hIgG1 (antibody, V domains shown)
VH: B1 VH with N55E
VL: B1 VL with R34G
notes: Humanized, PTM de-risked (VH N54E), human IgG1; also called 31D9B3 VH1.1-VL2 hlgG1
B18: 31D9B3 VH1.1-VL2.1 hIgG1 (antibody, V domains shown)
VH: B1 VH with N55E
VL: B1 VL with D33S, R34G
notes: Humanized, PTM de-risked, human IgG1; also called 31D9B3 VH1.1-VL2.1 hlgG1
B19: 31D9B3 VH1.1-VL2.2 hIgG1 (antibody, V domains shown)
VH: B1 VH with N55E
VL: B1 VL
notes: Humanized, PTM de-risked, human IgG1; also called 31D9B3 VH1.1-VL2.2 hlgG1
B20: 31D9B3 VH1-VL2.3 hIgG1 (antibody, V domains shown)
VH: B1 VH
VL: B1 VL with D33T, R34G
notes: Humanized, PTM de-risked (VL D(30C)T), human IgG1; also called 31D9B3 VH1-VL2.3 hlgG1
B21: 31D9B3 VH1.1-VL2.3 hIgG1 (antibody, V domains shown)
VH: B1 VH with N55E
VL: B1 VL with D33T, R34G
notes: Humanized, PTM de-risked, human IgG1; also called 31D9B3 VH1.1-VL2.3 hlgG1
B22: 108F3D1E9 H3L3 hIgG1 (antibody, V domains shown)
VH: B2 VH with L2V, P41F, V68I
VL: B2 VL with Q3V, K46Q, S64A, L82V
notes: Humanized, human IgG1; also called 108F3D1E9 H3L3 hlgG1
B23: 108F3D1E9 H3L2 hIgG1 (antibody, V domains shown)
VH: B2 VH with L2V, P41F, V68I
VL: B2 VL
notes: Humanized, human IgG1; also called 108F3D1E9 H3L2 hlgG1
B24: 108F3D1E9 H3L1 hIgG1 (antibody, V domains shown)
VH: B2 VH with L2V, P41F, V68I
VL: B2 VL with L4M, P47A, I62V
notes: Humanized, human IgG1; also called 108F3D1E9 H3L1 hlgG1
B25: 108F3D1E9 H3L4 hIgG1 (antibody, V domains shown)
VH: B2 VH with L2V, P41F, V68I
VL: B2 VL with Q3V, A13V, V19A, K46Q, S64A, G72R, L82V, V108L
notes: Humanized, human IgG1; also called 108F3D1E9 H3L4 hlgG1

What follows are binders tested against T1, human AMHRII (anti-Mullerian hormone …) (assay: FACS on Rko cells over-expressing human AMHR2).
Description: (§1) Rko cells over-expressing AMHR2 were harvested from flasks. 100 μl of 1×10⁶ cells/ml of cells were incubated with primary PTM antibodies in 3-fold serial dilutions starting from 300 nM to 0.001 nM for 30 minutes on ice. After being washed with 200 μl of FACS buffer twice, cells were incubated with secondary antibody for 30 minutes on ice. Cells were washed with 200 μl of FACS buffer twice and analyzed by FACS.

| Binder | EC50 | Top (MFI) |
| --- | --- | --- |
| B1 | 0.915 nM | 17200 MFI |

These binders were tested against T1, human AMHRII (anti-Mullerian hormone …) (assay: FACS on CHO-K1 cells over-expressing human AMHR2).
Description: as §1, with “CHO-K1” for “Rko”, “over-expressed” for “over-expressing”, “the humanized” for “primary PTM”

| Binder | EC50 | Top (MFI) |
| --- | --- | --- |
| B2 | 0.68 nM | 67900 MFI |
| B3 | 1.42 nM | 56600 MFI |
| B4 | 0.82 nM | 66700 MFI |
| B5 | 0.82 nM | 64600 MFI |
| B6 | 1.32 nM | 55800 MFI |
| B7 | 1.46 nM | 49600 MFI |
| B8 | 0.55 nM | 64400 MFI |
| B9 | 1.31 nM | 52800 MFI |
| B10 | 1.21 nM | 47200 MFI |
| B11 | 0.88 nM | 70900 MFI |
| B12 | 0.74 nM | 67300 MFI |
| B13 | 0.65 nM | 70600 MFI |
| B14 | 1.45 nM | 50200 MFI |
| B15 | 1.01 nM | 52500 MFI |
| B16 | 5.52 nM | 10400 MFI |
| B1 | 0.485 nM | 22400 MFI |
| B17 | 0.875 nM | 16800 MFI |
| B18 | 89.7 nM | 2170 MFI |
| B19 | 0.625 nM | 14500 MFI |
| B20 | 0.331 nM | 12500 MFI |
| B21 | 145 nM | 6580 MFI |

Molecular target: T1, human AMHRII (anti-Mullerian hormone …)
Assay: FACS on CHO-K1 cells over-expressing human AMHR2
Remark: another data set of the same source
Description: as §1, with “CHO-K1” for “Rko”, “over-expressed” for “over-expressing”, “the humanized” for “primary PTM”

| Binder | EC50 | Top (MFI) |
| --- | --- | --- |
| B22 | 0.82 nM | 66700 MFI |
| B23 | 0.82 nM | 64600 MFI |
| B24 | 0.74 nM | 65400 MFI |
| B25 | 0.88 nM | 70900 MFI |

Reference: patent publication US20240400701A1 (LANOVA MEDICINES DEVELOPMENT, published 2024)
